Assay results taken from IntAct's records for PubMed 18940604.

B1: Ras-related protein Rab-27A (Mus musculus), Q9ERI2 (parent)
chain: MSDGDYDYLIKFLALGDSGVGKTSVLYQYTDGKFNSKFITTVGIDFREKRVVYRANGPDGAVGRGQRIHLQLWDTAGQERFRSLTTAFFRDAMGFLLLFDLTNEQSFLNVRNWISQLQMHAYCENPDIVLCGNKSDLEDQRAVKEEEARELAEKYGIPYFETSAANGTNISHAIEMLLDLIMKRMERCVDKSWIPEGVVRSNGHTSADQLSEEKEKGLCGC
partner: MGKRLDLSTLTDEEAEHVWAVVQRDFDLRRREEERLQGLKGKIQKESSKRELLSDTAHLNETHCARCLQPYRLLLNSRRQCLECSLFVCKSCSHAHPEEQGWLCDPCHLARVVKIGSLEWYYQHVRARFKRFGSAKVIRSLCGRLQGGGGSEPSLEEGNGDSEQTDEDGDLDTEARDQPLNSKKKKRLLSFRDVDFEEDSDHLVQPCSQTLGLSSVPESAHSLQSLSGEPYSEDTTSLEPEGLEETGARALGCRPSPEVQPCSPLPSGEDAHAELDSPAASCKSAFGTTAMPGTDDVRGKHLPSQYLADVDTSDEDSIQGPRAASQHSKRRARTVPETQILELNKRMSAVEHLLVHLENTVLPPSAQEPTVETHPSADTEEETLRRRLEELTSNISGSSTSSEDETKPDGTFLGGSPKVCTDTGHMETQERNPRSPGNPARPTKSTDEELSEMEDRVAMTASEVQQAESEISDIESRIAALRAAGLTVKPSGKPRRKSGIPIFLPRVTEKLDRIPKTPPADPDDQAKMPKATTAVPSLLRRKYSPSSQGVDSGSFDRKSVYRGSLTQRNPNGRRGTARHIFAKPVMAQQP
B2: Ras-related protein Rab-3A (Mus musculus), P63011 (parent)
chain: MASATDSRYGQKESSDQNFDYMFKILIIGNSSVGKTSFLFRYADDSFTPAFVSTVGIDFKVKTIYRNDKRIKLQIWDTAGQERYRTITTAYYRGAMGFILMYDITNEESFNAVQDWSTQIKTYSWDNAQVLLVGNKCDMEDERVVSSERGRQLADHLGFEFFEASAKDNINVKQTFERLVDVICEKMSESLDTADPAVTGAKQGPQLTDQQAPPHQDCAC
partner: B1 partner

Variants of: B1
Details: with melph_mouse Mlph

Effect of a mutation on the interaction, disrupting interaction:
MSDGDFDYLIKFLALGDSGVGKTSVLYQYTDGKFNSKFITTVGIDFREKRVVYRANGPDGAVGRGQRIHLQLWDTAGQERFRSLTTAFFRDAMGFLLLFDLTNEQSFLNVRNWISQLQMHAYCENPDIVLCGNKSDLEDQRAVKEEEARELAEKYGIPYFETSAANGTNISHAIEMLLDLIMKRMERCVDKSWIPEGVVRSNGHTSADQLSEEKEKGLCGC [Y6F]
MSDGDFDYLIKFLALGDSGVGKTSVLYQYTDGKFNSKFITTVGIDFREKRVVYRANGPDGAVGRGQRIHLQLWDTAGQERFRSITTAYFRGAMGFLLLFDLTNEQSFLNVRNWISQLQMHAYCENPDIVLCGNKSDLEDQRAVKEEEARELAEKYGIPYFETSAANGTNISHAIEMLLDLIMKRMERCVDKSWIPEGVVRSNGHTSADQLSEEKEKGLCGC [Y6F;L84I;F88Y;D91G]

Variants of: B2
Details: with melph_mouse Mlph

Effect of a mutation on the interaction, disrupting interaction:
MASATDSRYGQKESSDQNYDYMFKILIIGNSSVGKTSFLFRYADDSFTPAFVSTVGIDFKVKTIYRNDKRIKLQIWDTAGQERYRTITTAYYRGAMGFILMYDITNEESFNAVQDWSTQIKTYSWDNAQVLLVGNKCDMEDERVVSSERGRQLADHLGFEFFEASAKDNINVKQTFERLVDVICEKMSESLDTADPAVTGAKQGPQLTDQQAPPHQDCAC [F19Y]
MASATDSRYGQKESSDQNYDYMFKILIIGNSSVGKTSFLFRYADDSFTPAFVSTVGIDFKVKTIYRNDKRIKLQIWDTAGQERYRTITTAYYRDAMGFILMYDITNEESFNAVQDWSTQIKTYSWDNAQVLLVGNKCDMEDERVVSSERGRQLADHLGFEFFEASAKDNINVKQTFERLVDVICEKMSESLDTADPAVTGAKQGPQLTDQQAPPHQDCAC [F19Y;G94D]
MASATDSRYGQKESSDQNFDYMFKILIIGNSSVGKTSFLFRYADDSFTPAFVSTVGIDFKVKTIYRNDKRIKLQIWDTAGQERYRTLTTAFYRDAMGFILMYDITNEESFNAVQDWSTQIKTYSWDNAQVLLVGNKCDMEDERVVSSERGRQLADHLGFEFFEASAKDNINVKQTFERLVDVICEKMSESLDTADPAVTGAKQGPQLTDQQAPPHQDCAC [I87L;Y91F;G94D]
MASATDSRYGQKESSDQNFDYMFKILIIGNSSVGKTSFLFRYADDSFTPAFVSTVGIDFKVKTIYRNDKRIKLQIWDTAGQERYRTITTAYYRDAMGFILMYDITNEESFNAVQDWSTQIKTYSWDNAQVLLVGNKCDMEDERVVSSERGRQLADHLGFEFFEASAKDNINVKQTFERLVDVICEKMSESLDTADPAVTGAKQGPQLTDQQAPPHQDCAC [G94D]
